Measured values: patent publication US20250320312A1 (OXITOPE PHARMA B V, published 2025)
Where a chain is given by its changes, count along the chain named.

T1: Peptide 4: Biotin-AGGGGSGGGGSGGGGSAAA-Tyr-acid (N-terminal biotin; C-terminal acid; no PC)
T1 construct: control peptide without PC
T1 peptide: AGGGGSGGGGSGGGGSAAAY

T2: Peptide 8: Biotin-AEAAAKEAAAKEAAAKEAAAKAAA-Tyr-acid (N-terminal biotin; C-terminal acid; no PC)
T2 construct: control peptide without PC
T2 peptide: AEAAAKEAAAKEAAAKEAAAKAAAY

B1: PcOxP_DB01_H06 (scFv, V domains shown)
VH: EVQLLESGGGLVQPGGSLRLSCAASGFTFSDFYMEWVRQAPGKGLEWVAASRNKGNSYTTAYADSVKGRFTISRDNSKNTLYLQMNSLRAEDTAVYYCARDYYGSSYWYFDVWGQGTLVTVSS
VL: DIVMTQSPDSLAVSLGERATINCTASESLYSSKHKVHYLAWYQQKPGQPPKLLIYGASNRYDGVPDRFSGSGSGTDFTLTISSLQAEDVAVYYCANFYSYPLTFGGGTKVEIK
notes: scFv in periplasmic extract
B2: PcOxP_DB01_G10 (scFv, V domains shown)
VH: B1 VH with G55N, S57D, A61E
VL: B1 VL with T24K, E27Q, V36K, D62P, N96Q, S99R
notes: scFv in periplasmic extract
B3: PcOxP_DB02_A05 (scFv, V domains shown)
VH: B1 VH with F29G, G55W, S57D, A61E
VL: B1 VL with S58G, D62I, N96Q
notes: scFv in periplasmic extract
B4: PcOxP_DB02_A04 (scFv, V domains shown)
VH: B1 VH with F27D, G55W, S57D, A61E
VL: B1 VL with D62I, N96Q
notes: scFv in periplasmic extract
B5: PcOxP_DB02_E09 (scFv, V domains shown)
VH: B1 VH with F32Y, N53W, G55A, S57D, A61E
VL: B1 VL with N59T, D62S, N96Q, S99T
notes: scFv in periplasmic extract
B6: PcOxP_DB02_C08 (scFv, V domains shown)
VH: B1 VH with F32P, G55A, S57D, A61E, S106P
VL: B1 VL with T24G, H34S, D62I, N96Q
notes: scFv in periplasmic extract
B7: PcOxP_DB02_C04 (scFv, V domains shown)
VH: B1 VH with F27Q, G55A, S57G, A61E, A63T
VL: B1 VL with S58N, D62I, N96Q
notes: scFv in periplasmic extract
B8: PcOxP_DB02_B04 (scFv, V domains shown)
VH: B1 VH with F32Y, G55W, S57D, A61E
VL: B1 VL with D62I, N96Q
notes: scFv in periplasmic extract
B9: PcOxP_DB01_G07 (scFv, V domains shown)
VH: B1 VH with F32Y, G55Y, S57D, A61E
VL: B1 VL with S31G, D62I, N96Q
notes: scFv in periplasmic extract
B10: PcOxP_DB01_H02 (scFv, V domains shown)
VH: B1 VH with D31S, F32Y, G55A, S57D, A61E
VL: B1 VL with E27S, D62I, N96Q
notes: scFv in periplasmic extract
B11: PcOxP_DB02_B07 (scFv, V domains shown)
VH: B1 VH with F32Q, K54N, G55A, S57D, A61E
VL: B1 VL with Y61Q, D62I, N96Q, S99H
notes: scFv in periplasmic extract
B12: PcOxP_DB02_C12 (scFv, V domains shown)
VH: B1 VH with F32H, G55A, S57D, A61E
VL: B1 VL with S58H, D62I
notes: scFv in periplasmic extract
B13: PcOxP_DB01_H03 (scFv, V domains shown)
VH: B1 VH with F32H, N53G
VL: B1 VL with S58G, D62I, N96Q, S99H
notes: scFv in periplasmic extract
B14: PcOxP_DB02_C03 (scFv, V domains shown)
VH: B1 VH with F32Y, N53W, G55A, S57D, A61E
VL: B1 VL with D62I, N96Q, S99V
notes: scFv in periplasmic extract
B15: PcOxP_DB02_E11 (scFv, V domains shown)
VH: B1 VH with F32Q, G55A, S57D, T60V, A61E
VL: B1 VL with T24K, A25S, Y30L, S31Y, H34N, K35N, V36K, H37N, D62S, N96Q
notes: scFv in periplasmic extract
B16: PcOxP_DB02_E03 (scFv, V domains shown)
VH: B1 VH with F32Y, N53W, G55A, S57D, A61E, Y107Q
VL: B1 VL with V36K, H37N, N59W, D62I, N96Q
notes: scFv in periplasmic extract
B17: PcOxP_DB01_G06 (scFv, V domains shown)
VH: B1 VH with F32Y, G55W, S57D, A61E
VL: B1 VL with D62S, N96Q
notes: scFv in periplasmic extract
B18: PcOxP_DB02_D02 (scFv, V domains shown)
VH: B1 VH with F32Y, G55A, S57D, A61E, V112T
VL: B1 VL with A25S, L29V, K33S, D62I, N96Q, S99Y
notes: scFv in periplasmic extract
B19: PcOxP_DB02_D03 (scFv, V domains shown)
VH: B1 VH with F29Q, G55A, S57A, A61E, S105Y
VL: B1 VL with A57N, D62I, A95G, N96Q
notes: scFv in periplasmic extract
B20: PcOxP_DB02_E02 (scFv, V domains shown)
VH: B1 VH with F32E, K54S
VL: B1 VL with D62I, N96Q
notes: scFv in periplasmic extract
B21: PcOxP_DB02_C05 (scFv, V domains shown)
VH: B1 VH with F29A, G55A, S57D, A61E
VL: B1 VL with D62I, N96Q
notes: scFv in periplasmic extract
B22: PcOxP_DB01_H01 (scFv, V domains shown)
VH: B1 VH with D31S, F32Y, G55A, S57L, A61E, Y107T
VL: B1 VL with D62I, N96Q
notes: scFv in periplasmic extract
B23: PcOxP_DB02_C10 (scFv, V domains shown)
VH: B1 VH with F32Y, G55A, S57D, A61E
VL: B1 VL with D62I, N96Q, S99E
notes: scFv in periplasmic extract
B24: PcOxP_DB02_E08 (scFv, V domains shown)
VH: B1 VH with F32D, S51T, G55A, S57D, A61E, V112S
VL: B1 VL with D62I, N96Q
notes: scFv in periplasmic extract
B25: PcOxP_DB01_G05 (human IgG1) (antibody, V domains shown)
VH: B1 VH with D31S, F32Y, G55A, S57E, A61E
VL: B1 VL with D62I
B26: PcOxP_DB01_G09 (human IgG1) (antibody, V domains shown)
VH: B1 VH with F32Y, G55A, S57T, A61E
VL: DIQMTQSPSSLSASVGDRVTITCTASESLYSSKHKVHYLAWYQQKPGKAPKLLIYGASNLYSGVPSRFSGSGSGTDFTLTISSLQPEDFATYYCAQFYSYPLTFGGGTKVEIK
B27: PcOxP_DB03_C10 (human IgG1) (antibody, V domains shown)
VH: B1 VH with D31S, F32Y, G55A, S57E, A61E
VL: B1 VL with S58G, D62I, N96Q
B28: PcOxP_DB01_H01 (human IgG1) (antibody, V domains shown)
VH: B1 VH with D31S, F32Y, G55A, S57L, A61E, Y107T
VL: B1 VL with D62I, N96Q
B29: PcOxP_DB03_H08 (human IgG1) (antibody, V domains shown)
VH: B1 VH with F27G, G55A, S57T, A61E
VL: B26 VL with A57S, L60R, S62I, S99Q
B30: PcOxP_DB03_B11 (human IgG1) (antibody, V domains shown)
VH: B1 VH with M34V, G55A, S57T, A61E
VL: B1 VL with S58Q, D62I, A95G, N96Q

target: BSA (UniProt P02769); assay: scFv ELISA
Sequence (P02769 25-607 limits assumed): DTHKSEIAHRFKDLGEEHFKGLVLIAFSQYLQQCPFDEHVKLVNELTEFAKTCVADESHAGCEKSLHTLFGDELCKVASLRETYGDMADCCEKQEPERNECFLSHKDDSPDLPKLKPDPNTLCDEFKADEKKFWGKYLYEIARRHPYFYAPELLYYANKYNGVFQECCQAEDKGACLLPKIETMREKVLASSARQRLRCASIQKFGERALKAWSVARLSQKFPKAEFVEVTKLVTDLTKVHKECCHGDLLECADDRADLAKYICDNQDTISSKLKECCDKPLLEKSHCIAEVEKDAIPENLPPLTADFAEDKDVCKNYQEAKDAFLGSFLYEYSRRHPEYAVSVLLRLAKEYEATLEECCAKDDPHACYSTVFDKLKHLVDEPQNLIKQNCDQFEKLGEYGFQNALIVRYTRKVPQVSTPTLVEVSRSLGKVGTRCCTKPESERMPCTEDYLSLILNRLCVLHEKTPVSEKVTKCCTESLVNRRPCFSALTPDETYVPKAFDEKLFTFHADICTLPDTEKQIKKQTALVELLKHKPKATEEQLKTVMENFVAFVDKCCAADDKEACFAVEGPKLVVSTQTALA

Molecule	OD450 [OD450]
B1	0.11
B2	0.1
B3	0.07
B4	0.09
B5	0.07
B6	0.06
B7	0.08
B8	0.08
B9	0.07
B10	0.1
B11	0.06
B12	0.07
B13	0.1
B14	0.1
B15	0.06
B16	0.08
B17	0.06
B18	0.05
B19	0.08
B20	0.06
B21	0.06
B22	0.09
B23	0.06
B24	0.07

target: Peptide 1: Biotin-…-[Tyr(PC)]-acid; assay: scFv ELISA

Molecule	OD450 [OD450]
B1	0.96
B2	0.71
B3	0.99
B4	0.33
B5	0.56
B6	0.22
B7	0.37
B8	0.75
B9	0.46
B10	0.74
B11	0.4
B12	0.97
B13	0.46
B14	0.54
B15	0.23
B16	0.39
B17	0.73
B18	0.16
B19	0.42
B20	0.09
B21	0.64
B22	0.82
B23	0.44
B24	0.24

target: Peptide 5: Biotin-…-[Tyr(PC)]-acid; assay: scFv ELISA

Molecule	OD450 [OD450]
B1	1.79
B2	1.52
B3	1.24
B4	0.82
B5	0.74
B6	0.39
B7	0.75
B8	1.32
B9	1.2
B10	1.1
B11	0.77
B12	1.58
B13	1.29
B14	0.61
B15	0.76
B16	0.75
B17	1.32
B18	0.27
B19	0.71
B20	0.34
B21	0.92
B22	1.23
B23	0.92
B24	0.49

Target: T1, Peptide 4: …
Assay: scFv ELISA
Summary of the method: (§1)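 Bound scFv was read as OD450 after HRP–anti-V5 detection, TMB development and HCl stop. PPE with BSA was incubated 1 h at RT on BSA-blocked wells coated overnight at 4° C. with peptide, or on streptavidin wells loaded 1 h with biotinylated PC-peptides at 1 μg/mL.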

Molecule	OD450 [OD450]
B1	0.05
B2	0.05
B3	0.05
B4	0.04
B5	0.04
B6	0.06
B7	0.05
B8	0.05
B9	0.05
B10	0.07
B11	0.04
B12	0.04
B13	0.07
B14	0.05
B15	0.04
B16	0.04
B17	0.05
B18	0.04
B19	0.04
B20	0.04
B21	0.04
B22	0.07
B23	0.04
B24	0.04

Target: T2, Peptide 8: …
Assay: scFv ELISA
Summary of the method: as §1

Molecule	OD450 [OD450]
B1	0.07
B2	0.05
B3	0.04
B4	0.04
B5	0.04
B6	0.04
B7	0.05
B8	0.04
B9	0.04
B10	0.06
B11	0.04
B12	0.04
B13	0.06
B14	0.05
B15	0.04
B16	0.05
B17	0.04
B18	0.04
B19	0.04
B20	0.05
B21	0.04
B22	0.06
B23	0.04
B24	0.04

target: PC-BSA; assay: ELISA (DELFIA TRF), PC-BSA coated, titrated IgG1
Sequence (P02769 25-607 limits assumed, form in doubt): as the sequence (P02769 25-607 limits assumed) above

Molecule	EC50 [pM]
E06 parental IgG1 (antibody)	390
B25	263
B26	308
B27	285
B28	275
B29	445
B30	299
